Source: article PMC2930322 (PLoS ONE, 2010)

Molecular target: the molecule itself
Test: atomic force microscopy; assembled 1 h at 37°C in 25 mM Tris-HCl (pH 7.5) with NaCl (vimentin 0.1 mg/ml, 125 mM NaCl; K5/K14 0.1 mg/ml, 50-100 mM NaCl), adsorbed to mica, flushed with water, dried, imaged in air in acoustic mode

B1: Human K5/K14 heterodimers (complex)
chain 1: MSRQSSVSFRSGGSRSFSTASAITPSVSRTSFTSVSRSGGGGGGGFGRVSLAGACGVGGYGSRSLYNLGGSKRISISTSGGSFRNRFGAGAGGGYGFGGGAGSGFGFGGGAGGGFGLGGGAGFGGGFGGPGFPVCPPGGIQEVTVNQSLLTPLNLQIDPSIQRVRTEEREQIKTLNNKFASFIDKVRFLEQQNKVLDTKWTLLQEQGTKTVRQNLEPLFEQYINNLRRQLDSIVGERGRLDSELRNMQDLVEDFKNKYEDEINKRTTAENEFVMLKKDVDAAYMNKVELEAKVDALMDEINFMKMFFDAELSQMQTHVSDTSVVLSMDNNRNLDLDSIIAEVKAQYEEIANRSRTEAESWYQTKYEELQQTAGRHGDDLRNTKHEISEMNRMIQRLRAEIDNVKKQCANLQNAIADAEQRGELALKDARNKLAELEEALQKAKQDMARLLREYQELMNTKLALDVEIATYRKLLEGEECRLSGEGVGPVNISVVTSSVSSGYGSGSGYGGGLGGGLGGGLGGGLAGGSSGSYYSSSSGGVGLGGGLSVGGSGFSASSGRGLGVGFGSGGGSSSSVKFVSTTSSSRKSFKS
chain 2: MTTCSRQFTSSSSMKGSCGIGGGIGGGSSRISSVLAGGSCRAPSTYGGGLSVSSSRFSSGGACGLGGGYGGGFSSSSSSFGSGFGGGYGGGLGAGLGGGFGGGFAGGDGLLVGSEKVTMQNLNDRLASYLDKVRALEEANADLEVKIRDWYQRQRPAEIKDYSPYFKTIEDLRNKILTATVDNANVLLQIDNARLAADDFRTKYETELNLRMSVEADINGLRRVLDELTLARADLEMQIESLKEELAYLKKNHEEEMNALRGQVGGDVNVEMDAAPGVDLSRILNEMRDQYEKMAEKNRKDAEEWFFTKTEELNREVATNSELVQSGKSEISELRRTMQNLEIELQSQLSMKASLENSLEETKGRYCMQLAQIQEMIGSVEEQLAQLRCEMEQQNQEYKILLDVKTRLEQEIATYRRLLEGEDAHLSSSQFSSGSQSSRDVTSSSRQIRTKVMDVHDGKVVSTHEQVLRTKN
notes: keratin K5 (keratin, type II cytoskeletal 5), human; keratin K14 (keratin, type I cytoskeletal 14), human; Named only as a heterodimer; the two chains are never tested against each other or one by one; also called keratin K5/K14; K5/K14 subunits; source: expressed and purified as described [17]; stored in 6 M urea, dialysed into 2 mM Tris-HCl (pH 9), 1 mM DTT
  binding result: binds
